Fold higher affinity of the dimer for gelatin data for one substance are collected here from paper PMC3164694.

The assay concerns the target gelatin layer (gelatin coated glass coverslips). The assay can be described thus: not stated; unpublished data (Collier and Goldberg); affinity for gelatin.

With MMP-9 pro-enzyme homo-dimer (complex), the fold higher affinity of the dimer for gelatin was determined as 10 fold.
